In the experiment the target is WT SARS-CoV-2 RBD (amino acids 321 to 591 of spike) (SARS-CoV-2, UniProt P0DTC2 321-591). In words: SPR.

For one molecule, koff results are on record in PMC9334538 (2022).

One may read the koff as the rate constant with which the complex falls apart.

B1: aRBD-5-Fc (Fc fusion)
chain: QVQLVESGGGLVQPGGTLRLSCAASGFTLDYYAIGWFRQAPGKEREGVSCISGSGGITNYTDSVKGRFTISRDNAKNTVYLQMNSLKPEDTAVYYCAPVSHTVVAGCAFEAWTDFGSWGQGTQVTVSS
With B1, the koff came to 0.0143 s⁻¹.
